From patent US20190071490A1, “Preventing Post-Ictal Headaches” (Beth Israel Deaconess Medical Center, Inc., priority 2017, published 2019)

T1: human α-CGRP (Homo sapiens, UniProt P06881)
T1 construct: 1-37 (WT); purchased GenScript Corporation or Global Peptide Services
T1 sequence (P06881 83-119 limits assumed): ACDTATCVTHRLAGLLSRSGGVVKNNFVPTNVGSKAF

T2: rat α-CGRP (Rattus norvegicus, UniProt P01256)
T2 construct: rat α (1-37); purchased GenScript Corporation or Global Peptide Services
T2 sequence (P01256 83-119 limits assumed): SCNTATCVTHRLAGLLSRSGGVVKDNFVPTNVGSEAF


Columns and labels:
[1] = target: T1, human α-CGRP; test: Biacore SPR affinity of Fab fragments to N-biotinylated human α-CGRP on SA chip; format: binding; conditions: 37° C., screening mode except underlined values
Method: (§1) Affinity determination of the Fabs. Affinities of the anti-CGRP monoclonal antibodies were determined at either 25° C. or 37° C. using the BIACORE3000™ surface plasmon resonance (SPR) system (Biacore, INC, Piscataway N.J.) with the manufacture's own running buffer, HBS-EP (10 mM HEPES pH 7.4, 150 mM NaCl, 3 mM EDTA, 0.005% v/v polysorbate P20). Affinity was determined by capturing N-terminally biotinylated CGRP peptides (custom ordered from GenScript Corporation, New Jersey or Global Peptide Services, Colorado) via pre-immobilized streptavidin on SA chip and measuring binding kinetics of antibody Fab titrated across the CGRP surface. Biotinylated CGRP was diluted into HBS-EP and injected over the chip at a concentration of less than 0.001 mg/ml. Using variable flow time across the individual chip channels, two ranges of antigen density were achieved: <50 response units (RU) for detailed kinetic studies and about 800 RU for concentration studies and screening. […] After each binding cycle, surfaces were regenerated with 25 mM NaOH in 25% v/v ethanol, which was tolerated over hundreds of cycles. Kinetic association rate (kon) and dissociation rate (koff) were obtained simultaneously by fitting the data to a 1:1 Langmuir binding model (Karlsson et al. (1994). Methods Enzymology 6. 99-110) using the BIAevaluation program. Global equilibrium dissociation constants (KD) or “affinities” were calculated from the ratio KD=koff/kon.
(§2) Biacore assay for affinity determination. […] All Biacore assays were conducted in HBS-EP running buffer (10 mM HEPES pH 7.4, 150 mM NaCl, 3 mM EDTA, 0.005% v/v polysorbate P20). CGRP surfaces were prepared by diluting the N-biotinylated CGRP to a concentration of less than 0.001 mg/mL into HBS-EP buffer and injecting it across the SA sensor chip using variable contact times. Low capacity surfaces, corresponding to capture levels <50 response units (RU) were used for high-resolution kinetic studies, whereas high capacity surfaces (about 800 RU of captured CGRP) were used for concentration studies, screening, and solution affinity determinations. […] Samples were typically injected for 1 minute at 100 μL/min and dissociation times of at least 10 minutes were allowed. After each binding cycle, surfaces were regenerated with 25 mM NaOH in 25% v/v ethanol, which was tolerated over hundreds of cycles. An entire titration series (typically generated in duplicate) was fit globally to a 1:1 Langmuir binding model using the BIAevaluation program. This returned a unique pair of association and dissociation kinetic rate constants (respectively, kon and koff) for each binding interaction, whose ratio gave the equilibrium dissociation constant (KD=koff/kon).
(§3) High-resolution analysis of binding interactions with extremely slow off rates. […] The protocol described above was used with the following modifications. The association rate constant (kon) was determined by injecting a 2-fold titration series (in duplicate) spanning 550 nM-1 nM for 30 seconds at 100 μL/min and allowing only a 30 second dissociation phase. The dissociation rate constant (koff) was determined by injecting three concentrations (high, medium, and low) of the same titration series in duplicate for 30 seconds and allowing a 2-hour dissociation phase. The affinity (KD) of each interaction was obtained by combining the kon and koff values obtained in both types of experiments, as shown in Table 4.

[2] = target: T2, rat α-CGRP; test: Biacore SPR affinity of Fab fragments to N-biotinylated rat α-CGRP on SA chip; format: binding; conditions: 37° C., screening mode except underlined values
Method: as §1, §2, §3

| α-human koff [1] | α-rat koff [2] | Molecule |
| --- | --- | --- |
| 0.000733 s⁻¹ | 0.00181 s⁻¹ | M69: G1 variant; L1 R28N T30G; L2 L561; H2 E54K A57N S58E; HC-FW3 L99T A100V (antibody, V domains shown) VH: EVQLVESGGGLVQPGGSLRLSCAASGFTFSNYWISWVRQAPGKGLEWVAEIRSKSDNEATHYAEAVKGRFTISRDNAKNSLYLQMNSLRAEDTAVYYCTVYFDYGLAIQNYWGQGTLVTVSS VL: EIVLTQSPATLSLSPGERATLSCKASKNVGTYVSWYQQKPGQAPRLLIYGASNRYIGIPARFSGSGSGTDFTLTISSLEPEDFAVYYCSQSYNYPYTFGQGTKLEIK |
| 0.0004 s⁻¹ | 0.00395 s⁻¹ | M72: G1 variant; L1 R28N T30G; L2 L56S; H2 E54K; HC-FW3 L99T A100V (antibody, V domains shown) VH: EVQLVESGGGLVQPGGSLRLSCAASGFTFSNYWISWVRQAPGKGLEWVAEIRSKSDASATHYAEAVKGRFTISRDNAKNSLYLQMNSLRAEDTAVYYCTVYFDYGLAIQNYWGQGTLVTVSS VL: EIVLTQSPATLSLSPGERATLSCKASKNVGTYVSWYQQKPGQAPRLLIYGASNRYSGIPARFSGSGSGTDFTLTISSLEPEDFAVYYCSQSYNYPYTFGQGTKLEIK |
| 0.00128 s⁻¹ | 0.00212 s⁻¹ | M71: G1 variant; L1 R28N T30G; L2 L561; H2 E54K A57Y; HC-FW3 L99T A100V (antibody, V domains shown) VH: EVQLVESGGGLVQPGGSLRLSCAASGFTFSNYWISWVRQAPGKGLEWVAEIRSKSDYSATHYAEAVKGRFTISRDNAKNSLYLQMNSLRAEDTAVYYCTVYFDYGLAIQNYWGQGTLVTVSS VL: EIVLTQSPATLSLSPGERATLSCKASKNVGTYVSWYQQKPGQAPRLLIYGASNRYIGIPARFSGSGSGTDFTLTISSLEPEDFAVYYCSQSYNYPYTFGQGTKLEIK |
| 0.00116 s⁻¹ | 0.0187 s⁻¹ | M75: G1 variant; L1 R28N T30G; L2 L56S; H2 E54K A57V; HC-FW3 L99T A100V (antibody, V domains shown) VH: EVQLVESGGGLVQPGGSLRLSCAASGFTFSNYWISWVRQAPGKGLEWVAEIRSKSDVSATHYAEAVKGRFTISRDNAKNSLYLQMNSLRAEDTAVYYCTVYFDYGLAIQNYWGQGTLVTVSS VL: EIVLTQSPATLSLSPGERATLSCKASKNVGTYVSWYQQKPGQAPRLLIYGASNRYSGIPARFSGSGSGTDFTLTISSLEPEDFAVYYCSQSYNYPYTFGQGTKLEIK |
| 0.000559 s⁻¹ | 0.00607 s⁻¹ | M70: G1 variant; L1 R28N T30G; L2 L561; H2 E54K A57S; HC-FW3 L99T A100V (antibody, V domains shown) VH: EVQLVESGGGLVQPGGSLRLSCAASGFTFSNYWISWVRQAPGKGLEWVAEIRSKSDSSATHYAEAVKGRFTISRDNAKNSLYLQMNSLRAEDTAVYYCTVYFDYGLAIQNYWGQGTLVTVSS VL: EIVLTQSPATLSLSPGERATLSCKASKNVGTYVSWYQQKPGQAPRLLIYGASNRYIGIPARFSGSGSGTDFTLTISSLEPEDFAVYYCSQSYNYPYTFGQGTKLEIK |
| 0.00129 s⁻¹ | 0.19 s⁻¹ | M79: G1 variant; L1 R28N T30S; L2 G50A L56T; H2 E54K A57P; HC-FW3 L99T A100V (antibody, V domains shown) VH: EVQLVESGGGLVQPGGSLRLSCAASGFTFSNYWISWVRQAPGKGLEWVAEIRSKSDPSATHYAEAVKGRFTISRDNAKNSLYLQMNSLRAEDTAVYYCTVYFDYGLAIQNYWGQGTLVTVSS VL: EIVLTQSPATLSLSPGERATLSCKASKNVSTYVSWYQQKPGQAPRLLIYAASNRYTGIPARFSGSGSGTDFTLTISSLEPEDFAVYYCSQSYNYPYTFGQGTKLEIK |
| 0.000255 s⁻¹ | 0.003 s⁻¹ | M73: G1 variant; L1 R28N T30G; L2 L56S; H2 E54K A57N S58Y E64D; HC-FW3 L99T A100V (antibody, V domains shown) VH: EVQLVESGGGLVQPGGSLRLSCAASGFTFSNYWISWVRQAPGKGLEWVAEIRSKSDNYATHYADAVKGRFTISRDNAKNSLYLQMNSLRAEDTAVYYCTVYFDYGLAIQNYWGQGTLVTVSS VL: EIVLTQSPATLSLSPGERATLSCKASKNVGTYVSWYQQKPGQAPRLLIYGASNRYSGIPARFSGSGSGTDFTLTISSLEPEDFAVYYCSQSYNYPYTFGQGTKLEIK |
| 0.000477 s⁻¹ | 0.0143 s⁻¹ | M77: G1 variant; L1 R28N T30S; L2 G50A L56T; H2 E54K A57D; HC-FW3 L99T A100V (antibody, V domains shown) VH: EVQLVESGGGLVQPGGSLRLSCAASGFTFSNYWISWVRQAPGKGLEWVAEIRSKSDDSATHYAEAVKGRFTISRDNAKNSLYLQMNSLRAEDTAVYYCTVYFDYGLAIQNYWGQGTLVTVSS VL: EIVLTQSPATLSLSPGERATLSCKASKNVSTYVSWYQQKPGQAPRLLIYAASNRYTGIPARFSGSGSGTDFTLTISSLEPEDFAVYYCSQSYNYPYTFGQGTKLEIK |
| 0.000597 s⁻¹ | 0.00603 s⁻¹ | M74: G1 variant; L1 R28N T30G; L2 L56S; H2 E54K A57S; HC-FW3 L99T A100V (antibody, V domains shown) VH: EVQLVESGGGLVQPGGSLRLSCAASGFTFSNYWISWVRQAPGKGLEWVAEIRSKSDSSATHYAEAVKGRFTISRDNAKNSLYLQMNSLRAEDTAVYYCTVYFDYGLAIQNYWGQGTLVTVSS VL: EIVLTQSPATLSLSPGERATLSCKASKNVGTYVSWYQQKPGQAPRLLIYGASNRYSGIPARFSGSGSGTDFTLTISSLEPEDFAVYYCSQSYNYPYTFGQGTKLEIK |
| 0.00131 s⁻¹ | 0.167 s⁻¹ | M78: G1 variant; L1 R28N T30S; L2 G50A L56T; H2 E54K A57N S58T; HC-FW3 L99T A100V (antibody, V domains shown) VH: EVQLVESGGGLVQPGGSLRLSCAASGFTFSNYWISWVRQAPGKGLEWVAEIRSKSDNTATHYAEAVKGRFTISRDNAKNSLYLQMNSLRAEDTAVYYCTVYFDYGLAIQNYWGQGTLVTVSS VL: EIVLTQSPATLSLSPGERATLSCKASKNVSTYVSWYQQKPGQAPRLLIYAASNRYTGIPARFSGSGSGTDFTLTISSLEPEDFAVYYCSQSYNYPYTFGQGTKLEIK |
| 0.000364 s⁻¹ | 0.00116 s⁻¹ | M76: G1 variant; L1 R28N T30S; L2 G50A L56T; H2 A57G; HC-FW3 L99T A100V (antibody, V domains shown) VH: EVQLVESGGGLVQPGGSLRLSCAASGFTFSNYWISWVRQAPGKGLEWVAEIRSESDGSATHYAEAVKGRFTISRDNAKNSLYLQMNSLRAEDTAVYYCTVYFDYGLAIQNYWGQGTLVTVSS VL: EIVLTQSPATLSLSPGERATLSCKASKNVSTYVSWYQQKPGQAPRLLIYAASNRYTGIPARFSGSGSGTDFTLTISSLEPEDFAVYYCSQSYNYPYTFGQGTKLEIK |
| 0.00209 s⁻¹ | 0.0993 s⁻¹ | M80: G1 variant; L1 R28N T30S; L2 L561; H2 E54K A57N; S58V (printed in L1 column); HC-FW3 L99T A100V (antibody, V domains shown) VH: EVQLVESGGGLVQPGGSLRLSCAASGFTFSNYWISWVRQAPGKGLEWVAEIRSKSDNVATHYAEAVKGRFTISRDNAKNSLYLQMNSLRAEDTAVYYCTVYFDYGLAIQNYWGQGTLVTVSS VL: EIVLTQSPATLSLSPGERATLSCKASKNVSTYVSWYQQKPGQAPRLLIYGASNRYIGIPARFSGSGSGTDFTLTISSLEPEDFAVYYCSQSYNYPYTFGQGTKLEIK |
